In PMC4496268:

Molecular target: syntaxin-1, endogenous in cultured mouse neurons (mouse (endogenous in cultured neurons of Syt1 KO mice)) (UniProt O35526)
Experiment: co-IP

UniProt O35526, sequence (O35526 whole entry): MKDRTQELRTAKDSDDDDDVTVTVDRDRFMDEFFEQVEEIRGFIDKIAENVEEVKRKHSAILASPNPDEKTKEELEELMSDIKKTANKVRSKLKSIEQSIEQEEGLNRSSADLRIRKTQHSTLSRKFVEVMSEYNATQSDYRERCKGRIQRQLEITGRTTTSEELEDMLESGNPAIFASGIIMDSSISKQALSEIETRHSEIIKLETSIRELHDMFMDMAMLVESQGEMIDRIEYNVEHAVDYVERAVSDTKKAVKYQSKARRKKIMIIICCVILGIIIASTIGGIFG

Synaptotagmin-1 R322E K325E mutant, expressed in Syt1 KO neurons (from UniProt P21707 1-421) (natural protein)
decrease of co-immunoprecipitated Syt1 against WT Syt1: 62%
